The record followed here is article PMC11169542, “A probe for NIR-II imaging and multimodal analysis of early Alzheimer’s disease by targeting CTGF” (Nature Communications, 2024).

Ends that are not written are not given here.

One data set deals with CTX TNA2 cells. As to the kind of experiment: Cytotoxicity of DGC (CCK-8). The data set is classed as cell-based. The arrangement: key to Cell viability: viability relative to control cells (control = 1). The following applies: for Cell viability: 24 h, CCK-8, normalized to control. As to the method: U87MG, SH-SY5Y, and CTX TNA2 cells were seeded into 96-well plates at a density of 5 × 10^3 cells per well and were incubated at 37 °C for 24 h. Then, the cells were treated with 5, 10, 20, 50, 100, and 500 µM DGC for 24 h. Next, 10 µL of a colorimetric Cell Counting Kit (CCK-8) reagent diluted with 100 µL medium was added to each well, and incubated for 30 min, The absorbance at 450 nm was measured using a microplate reader (Molecular Devices, San Jose, CA, USA). The relative viability was normalized to control cells. The experiment was performed in triplicates.

The nature of data set [1]: Biodistribution of DGC in organs by ex vivo NIR-II imaging. The following applies: ex vivo NIR-II observation of major organs. The arrangement: species or system APP/PS1 and wild-type mice. On the procedure: Mice were then perfused intracardially with saline and 4% PFA, and major organs (including the brain, heart, liver, spleen, lung, and kidney were isolated. The dissociated brains were performed NIR-II imaging ex vivo using the same method as in vivo imaging (n = 3). All isolated organs were also imaged by the NIR-II imaging system (λ ex = 808 nm, 1000 nm longpass (LP) filter (Edmund Optics)). And then, the brains were kept in 4% PFA overnight and embedded with paraffin. Sections with 5-μm thickness were cut and analyzed by immunostaining with antibodies to CTGF (dilution 1: 50, Abcam, Cat#ab6992), GFAP (dilution 1:100, Proteintech, Cat#16825-1-AP), CD31 (dilution 1:200, Beyotime, Cat#AF6408), Neun (dilution 1:300, abcam, Cat# ab177487), and Iba 1 (dilution 1:50, Beyotime, Cat# AF7143), respectively.

“DGC: CTGF-targeting peptide-coated gold nanocluster: one Au26 gold nanocluster coated by eight DAG cyclic peptides, NIR-II and red fluorescence (CDAGRKQKC; also: cyclic peptide, ring not given here, eight peptides on one Au26 nanocluster via Cys Au-S bonds)”: the Cell viability with CTX TNA2 cells (5 μM (Au content), replicate 1) stood at 1.236; in the data set with CTX TNA2 cells (5 μM (Au content), replicate 2), 1.185; with CTX TNA2 cells (5 μM (Au content), replicate 3), 1.252; with CTX TNA2 cells (10 μM (Au content), replicate 1), 1.248; with CTX TNA2 cells (10 μM (Au content), replicate 2), 1.23; with CTX TNA2 cells (10 μM (Au content), replicate 3), 1.328. Besides, the Cell viability in the data set with CTX TNA2 cells (20 μM (Au content), replicate 1) is 1.233; in the data set on CTX TNA2 cells (20 μM (Au content), replicate 2), 1.3; in the data set on CTX TNA2 cells (20 μM (Au content), replicate 3), 1.347; in the data set on CTX TNA2 cells (50 μM (Au content), replicate 1), 1.269; with CTX TNA2 cells (50 μM (Au content), replicate 2), 1.237; in the data set on CTX TNA2 cells (50 μM (Au content), replicate 3), 1.251. Moreover, the Cell viability with CTX TNA2 cells (100 μM (Au content), replicate 1) is 1.349; with CTX TNA2 cells (100 μM (Au content), replicate 2) it was 1.363; in the data set with CTX TNA2 cells (100 μM (Au content), replicate 3) it was 1.443; in the data set on CTX TNA2 cells (500 μM (Au content), replicate 1), 1.758; in the data set on CTX TNA2 cells (500 μM (Au content), replicate 2), 1.646; in the data set with CTX TNA2 cells (500 μM (Au content), replicate 3) it was 1.62. Also, the cytotoxicity entry with CTX TNA2 cells (DGC incubation 24 h, CCK-8) is reported as “did not cause any obvious cytotoxicity”. Further, in data set [1], the “metabolism and excretion route” value was “mainly metabolized by the liver and excreted through the kidney and liver”.
